Reference: paper PMC5494296
Values joined by “and” are separate entries in the source; they are usually repeats but may differ in a detail not shown here. Equal entries are not always repeated.

How the values were obtained:
Experiment in all cases: SEC; size-exclusion chromatography of the tag-free proteins after cleavage of the MBP fusion proteins with factor Xa; self-association (oligomeric state); SEC data not shown
[1] = biological target: Y138K full-length human phenylalanine hydroxylase (human) (UniProt P00439)
[2] = biological target: ΔN102/ΔC24-Y138F human phenylalanine hydroxylase catalytic domain (human) (UniProt P00439)
[3] = biological target: ΔN102/ΔC24-Y138K human phenylalanine hydroxylase catalytic domain (human) (UniProt P00439)
[4] = biological target: double truncated form ΔN102/ΔC24-hPAH (catalytic domain of human phenylalanine hydroxylase) (human) (UniProt P00439)
[5] = biological target: Y138A full-length human phenylalanine hydroxylase (human) (UniProt P00439)
[6] = biological target: ΔN102/ΔC24-Y138A human phenylalanine hydroxylase catalytic domain (human) (UniProt P00439)
[7] = biological target: Y138E full-length human phenylalanine hydroxylase (human) (UniProt P00439)
[8] = biological target: ΔN102/ΔC24-Y138E human phenylalanine hydroxylase catalytic domain (human) (UniProt P00439)
[9] = biological target: wild-type human phenylalanine hydroxylase, full-length (wt-hPAH) (human) (UniProt P00439)
[10] = biological target: Y138F full-length human phenylalanine hydroxylase (human) (UniProt P00439)

For “Y138K full-length human phenylalanine hydroxylase (from UniProt P00439 1-452) (enzyme)”, the stoichiometry N [1] was 2 and 4.
“ΔN102/ΔC24-Y138F human phenylalanine hydroxylase catalytic domain (from UniProt P00439 103-428) (domain or fragment)” showed a stoichiometry N [2] of 2.
“ΔN102/ΔC24-Y138K human phenylalanine hydroxylase catalytic domain (from UniProt P00439 103-428) (domain or fragment)” was tested, and the stoichiometry N [3] was 2.
“double truncated form ΔN102/ΔC24-hPAH (catalytic domain of human phenylalanine hydroxylase) (from UniProt P00439 103-428) (domain or fragment)” showed a stoichiometry N [4] of 2.
With “Y138A full-length human phenylalanine hydroxylase (from UniProt P00439 1-452) (enzyme)” the stoichiometry N [5] was 4 and 2.
For “ΔN102/ΔC24-Y138A human phenylalanine hydroxylase catalytic domain (from UniProt P00439 103-428) (domain or fragment)”, the stoichiometry N [6] was 2.
“Y138E full-length human phenylalanine hydroxylase (from UniProt P00439 1-452) (enzyme)” was tested, and the stoichiometry N [7] was 4 and 2.
In the case of “ΔN102/ΔC24-Y138E human phenylalanine hydroxylase catalytic domain (from UniProt P00439 103-428) (domain or fragment)”, the stoichiometry N [8] is reported as 2.
In the case of “wild-type human phenylalanine hydroxylase, full-length (wt-hPAH) (from UniProt P00439 1-452) (enzyme)”, the stoichiometry N [9] is reported as 4 and 2.
For “Y138F full-length human phenylalanine hydroxylase (from UniProt P00439 1-452) (enzyme)”, the stoichiometry N [10] was 4 and 2.
